# From paper PMC4725248, “Yeast mitochondrial HMG proteins”
# T1: ScAbf2p (ScAbf2noMP) (Saccharomyces cerevisiae, UniProt Q02486 27-183)
# T1 sequence: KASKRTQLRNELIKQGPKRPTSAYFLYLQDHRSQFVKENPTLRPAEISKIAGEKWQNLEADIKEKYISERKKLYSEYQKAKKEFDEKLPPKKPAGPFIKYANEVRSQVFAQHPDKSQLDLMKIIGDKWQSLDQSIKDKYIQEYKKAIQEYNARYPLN
# T2: CpGcf1p (CpGcf1noMP) (Candida parapsilosis CBS604, UniProt G8BDQ3 34-251)
# T2 sequence: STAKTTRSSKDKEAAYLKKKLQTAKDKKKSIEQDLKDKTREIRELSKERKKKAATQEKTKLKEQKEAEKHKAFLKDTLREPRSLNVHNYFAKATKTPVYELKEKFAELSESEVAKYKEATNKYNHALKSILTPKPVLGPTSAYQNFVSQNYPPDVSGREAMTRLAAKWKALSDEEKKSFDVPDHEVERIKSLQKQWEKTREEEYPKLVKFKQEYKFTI
# T3: CpGcf1p (CpGcf1noMP) (Candida parapsilosis CBS604) (UniProt G8BDQ3)
# T3 sequence: T2 sequence
# T4: ScAbf2p (ScAbf2noMP) (Saccharomyces cerevisiae) (UniProt Q02486)
# T4 sequence: T1 sequence
# B1: 15 bp atp9 dsDNA (dsDNA)
# DNA 1: GGAGCAGGTATTGGT
# DNA 2: ACCAATACCTGCTCC
# B2: 25 bp atp9 dsDNA (dsDNA)
# DNA 1: GGAGCAGGTATTGGTATTGCTATCG
# DNA 2: CGATAGCAATACCAATACCTGCTCC
# Columns and labels:
# [1] = tested on: YlMhb1p (YlMhb1noMP) (Yarrowia lipolytica); assay: EMSA; conditions: 50% shift, 3 nM probe, EMSA: 20 mM Tris/HCl pH 7.5, 1 mM EDTA, 50 mM NaCl, 100 ug/ml BSA, 3 nM DNA, 10 min 30 C, gel 0.5x TBE 4 C, EM: 20 mM HEPES pH 7.5, 1 mM EDTA, room …
# [2] = molecular target: T1, ScAbf2p (ScAbf2noMP); assay: EMSA; conditions: 50% shift, 3 nM probe, EMSA: 20 mM Tris/HCl pH 7.5, 1 mM EDTA, 50 mM NaCl, 100 ug/ml BSA, 3 nM DNA, 10 min 30 C, gel 0.5x TBE 4 C, EM: 20 mM HEPES pH 7.5, 1 mM EDTA, room …
# [3] = molecular target: T2, CpGcf1p (CpGcf1noMP); assay: EMSA; conditions: 120 nM protein, EMSA: 20 mM Tris/HCl pH 7.5, 1 mM EDTA, 50 mM NaCl, 100 ug/ml BSA, 3 nM DNA, 10 min 30 C, gel 0.5x TBE 4 C, EM: 20 mM HEPES pH 7.5, 1 mM EDTA, room …
# [4] = molecular target: T3, CpGcf1p (CpGcf1noMP) (Candida parapsilosis CBS604); assay: EMSA; conditions: EMSA: 20 mM Tris/HCl pH 7.5, 1 mM EDTA, 50 mM NaCl, 100 ug/ml BSA, 3 nM DNA, 10 min 30 C, gel 0.5x TBE 4 C, EM: 20 mM HEPES pH 7.5, 1 mM EDTA, room …
# [5] = molecular target: T4, ScAbf2p (ScAbf2noMP) (Saccharomyces cerevisiae); assay: EMSA; conditions: EMSA: 20 mM Tris/HCl pH 7.5, 1 mM EDTA, 50 mM NaCl, 100 ug/ml BSA, 3 nM DNA, 10 min 30 C, gel 0.5x TBE 4 C, EM: 20 mM HEPES pH 7.5, 1 mM EDTA, room …
# [6] = molecular target: T1, ScAbf2p (ScAbf2noMP); assay: EMSA; EMSA: 20 mM Tris/HCl pH 7.5, 1 mM EDTA, 50 mM NaCl, 100 ug/ml BSA, 3 nM DNA, 10 min 30 C, gel 0.5x TBE 4 C; EM: 20 mM HEPES pH 7.5, 1 mM EDTA, 50 mM NaCl, room; conditions: protein: recombinant; tags: GST removed with PreScission protease (pGEX-6P-2); label: 32P, 5' end of S6; blunt
# [7] = molecular target: T2, CpGcf1p (CpGcf1noMP); assay: as above; conditions: protein: recombinant, tags: GST removed with PreScission protease (pGEX-6P-2), label: 32P, blunt
# [8] = molecular target: T1, ScAbf2p (ScAbf2noMP); assay: EMSA; almost quantitative shift; EMSA: 20 mM Tris/HCl pH 7.5, 1 mM EDTA, 50 mM NaCl, 100 ug/ml BSA, 3 nM DNA, 10 min 30 C, gel 0.5x TBE 4 C; EM: 20 mM HEPES pH 7.5, 1 mM EDTA, 50 mM NaCl, room; conditions: protein: recombinant; tags: GST removed with PreScission protease (pGEX-6P-2); label: 32P, 5' end of S8; blunt
molecule,measurement,setting,value
fluorescent dsDNA,K half,[1],120 nM
same,K half,[2],30 nM
Holliday junction (HJ),binding signal (fold higher than 3' Flap),[3],8
ACACCATTAATTAAAGCTGCGAATACGATAGCAATACCAATACCTGCTCC (double strand) [50 bp atp9 dsDNA],binding,[4],binds
same,binding,[5],binds
B1,binding result,[6],no binding
same,binding result,[7]; 5' end of S6,no binding
B2,binding result,[7]; 5' end of S8,no binding
same,binding result,[8],binds
